Test results taken from PMC4522616 (Emerging Microbes & Infections, 2015).

What was measured:
[1] = molecular target: gp120 of HIV-1 96ZM651 (clade C) (HIV-1 group M subtype C, isolate 96ZM651, strain); assay: ELISA
[2] = molecular target: gp120 of HIV-1 BaL (clade B) (HIV-1 group M subtype B, isolate BaL …, UniProt Q2MKA8, strain); assay: ELISA
[3] = molecular target: gp120 of HIV-1 JR-FL (clade B) (HIV-1); assay: BLI
[4] = molecular target: gp120 of HIV-1 93MW965 (clade C) (HIV-1 group M subtype C, isolate …, strain); assay: BLI
[5] = molecular target: T1, C4 peptide VGKAMYAPPIRGQIR (gp120 residues 430 to 444, HXB2 numbering) (HIV-1); assay: crystal structure
T1 chain: VGKAMYAPPIRGQIR

[6] = molecular target: JR-FL Env on pseudovirions (HIV-1 JR-FL (clade B), UniProt Q75760, strain); assay: virus capture assay

B1: rabbit monoclonal antibody R53 (antibody, V domains shown)
VH: QSLEESGGGPVKPGGTLTLTCKASGIDFSSFYYMCWVRQAPGKGLEWIACIVTDITGESYYATWAKGRFAISKTSSTTVTLQMTSLTAADTATYFCARGDTYGYGDTVYALNLWGPGTLVTVSS
VL: GPVLTQTPPSASEPVGGTVTIKCQASQAIDEYLGWYQQKPGQRPKLLMYYASTLASGVPSRFKGSGSGTQFTLTISDLECADAATYYCQNYYVGSSTNYAFTFGGGTEVVVK
For B1, the binding result [1] was “binds”, the binding result [2] was “binds” and the Kd [3] was 1.96 nM. For the same binder, the koff [3] was 0.000309 s⁻¹, the kon [3] was 157000 M⁻¹ s⁻¹ and the Kd [4] was 3.98 nM. For the same binder, the koff [4] was 0.00121 s⁻¹ and the kon [4] was 304000 M⁻¹ s⁻¹.

B2: R53 antigen-binding fragment (Fab) (Fab, V domains shown)
VH: QSLEESGGGPVKPGGTLTLTCKASGIDFSSFYYMCWVRQAPGKGLEWIACIVTDITGESYYATWAKGRFAISKTSSTTVTLQMTSLTAADTATYFCARGDTYGYGDTVYALNLWGPGTLVTVSS
VL: GPVLTQTPPSASEPVGGTVTIKCQASQAIDEYLGWYQQKPGQRPKLLMYYASTLASGVPSRFKGSGSGTQFTLTISDLECADAATYYCQNYYVGSSTNYAFTFGGGTEVVVK
B2: binds [5].

B3: rabbit monoclonal antibody R56 (antibody, V domains shown)
VH: QSLEESGGDLVQPGASLTLTCKASGFSFGNNYDMCWVRQAPGKGLEWIGCIETGSSDSAAYATWAKGRFTISKTSSTTVTLQMTSLTAADTATYFCARNFDLWGPGTLVIVSS
VL: QVLTQTPSSVSTAVGSAVTINCQSSQNVYSNNNLAWFQQKPGQPPRLLIYDASKLASGVPSRFKGSGSGTQFTFTISDVQCDDAATFYCLGGYDCSSGDCAAFGGGTEVVVR
B3: binds [6].
